The results in this text go back to the supplement of paper PMC7125110.

To fix the notation:
B1: glmS ribozyme (parent)
chain: AUAAAAGCGCCAGAACUACAGAAAUGUAGUUGACGAGGAGGAGGUUUAUCGAAUUUUCGGCGGAUGCCUCCAAA

Holding throughout (conditions): with glucosamine-6-phosphate
The variants in data set [1] derive from B1. Put plainly: kcat; higher = faster cleavage; RNA array. Put shortly:
(§1)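 A hybridised Cy3 probe tracked barcoded ribozyme variants, transcribed in situ by E. coli RNA polymerase on sequenced MiSeq chips, at 37 °C. The variants received 40 μM to 10 mM glucosamine-6-phosphate in HEPES/KCl/Mg(OAc)2 buffer. kobs came from decay fits and kcat and KM from weighted Michaelis–Menten fits.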

Variants of B1 are the subject of data set [2]. Put plainly: KM; higher = weaker cofactor use; RNA array. The procedure, abridged:
as §1

Data set [3] covers variants of B1. Put plainly: self-cleavage kobs at 640 uM GlcN6P; higher = faster cleavage; RNA array. Put shortly:
as §1

The variants in data set [4] derive from B1. Kind of data set: self-cleavage kobs at 2500 uM GlcN6P; higher = faster cleavage; RNA array. Put shortly: as §1
The variants in data set [5] derive from B1. Kind of data set: self-cleavage kobs at 10000 uM GlcN6P; higher = faster cleavage; RNA array. Put shortly: as §1
The variants in data set [6] derive from B1. Kind of data set: self-cleavage kobs at 40 uM GlcN6P; higher = faster cleavage; RNA array. The procedure, abridged:
as §1

The variants in data set [7] derive from B1. Kind of data set: self-cleavage kobs at 160 uM GlcN6P; higher = faster cleavage; RNA array. The procedure, abridged: as §1

As usually defined, the kcat is the maximal rate divided by the concentration of active sites. Broadly, the KM is the concentration of substrate that gives half-maximal velocity.

± gives the standard error. For some of these results: This sample holds only a part of the variants without activity.

For G13U C16G, the kcat in data set [1] was 0.000981 ± 0.00012 s⁻¹. Further, the KM in data set [2] was 5.17 ± 0.95 mM. Moreover, in data set [3], the “self-cleavage kobs at 640 uM GlcN6P” value was found to be 0.000112 ± 1.7e-05 s⁻¹. In addition, in data set [4], the “self-cleavage kobs at 2500 uM GlcN6P” value is 0.000305 ± 6e-05 s⁻¹. In data set [5], the “self-cleavage kobs at 10000 uM GlcN6P” value was 0.000653 ± 0.0001 s⁻¹.

On to U46G C68A, for which the turnover number (kcat) in data set [1] was determined as 3.1e-05 ± 2.2e-06 s⁻¹. Besides, the “self-cleavage kobs at 10000 uM GlcN6P” value in data set [5] came to 3.1e-05 ± 1.1e-05 s⁻¹.

Take A6C U55G: the turnover number (kcat) in data set [1] worked out at 0.00017 ± 7.1e-06 s⁻¹. In addition, the KM in data set [2] came to 8.25 ± 0.64 mM. Moreover, the “self-cleavage kobs at 2500 uM GlcN6P” value in data set [4] stood at 4.01e-05 ± 9.6e-06 s⁻¹. In data set [5], the “self-cleavage kobs at 10000 uM GlcN6P” value is 9.3e-05 ± 1.1e-05 s⁻¹.

For the variant A39C A52U, in data set [1], the kcat came out at 8.87e-05 ± 2.8e-06 s⁻¹. Further, the KM in data set [2] came to 2.38 ± 0.21 mM. The “self-cleavage kobs at 40 uM GlcN6P” value in data set [6] is less than 1e-05 s⁻¹. Further, the “self-cleavage kobs at 640 uM GlcN6P” value in data set [3] was found to be 1.71e-05 ± 7.8e-06 s⁻¹. Besides, the “self-cleavage kobs at 2500 uM GlcN6P” value in data set [4] is 4.62e-05 ± 6.1e-06 s⁻¹. Besides, in data set [5], the “self-cleavage kobs at 10000 uM GlcN6P” value was found to be 7.13e-05 ± 7.2e-06 s⁻¹.

As to A48U U55C, the catalytic constant (kcat) in data set [1] is 0.000437 ± 6.5e-05 s⁻¹. For the same variant, in data set [2], the KM came out at 2.19 ± 0.65 mM. For the same variant, in data set [3], the “self-cleavage kobs at 640 uM GlcN6P” value is 0.000116 ± 2.5e-05 s⁻¹. Also, in data set [4], the “self-cleavage kobs at 2500 uM GlcN6P” value amounted to 0.000214 ± 3.6e-05 s⁻¹. For the same variant, the “self-cleavage kobs at 10000 uM GlcN6P” value in data set [5] came to 0.000378 ± 6.8e-05 s⁻¹.

As to A39G A64U, the kcat in data set [1] was determined as 0.000215 ± 3.3e-05 s⁻¹. Moreover, the Michaelis-Menten constant (KM) in data set [2] worked out at 3.44 ± 0.95 mM. The “self-cleavage kobs at 40 uM GlcN6P” value in data set [6] is less than 1e-05 s⁻¹. In data set [3], the “self-cleavage kobs at 640 uM GlcN6P” value came out at 3.77e-05 ± 1.6e-05 s⁻¹. In addition, the “self-cleavage kobs at 2500 uM GlcN6P” value in data set [4] was 8.33e-05 ± 2.5e-05 s⁻¹. In data set [5], the “self-cleavage kobs at 10000 uM GlcN6P” value was 0.000168 ± 5.5e-05 s⁻¹.

Turning to A33G G35A G37A C71U, the catalytic constant (kcat) in data set [1] is 1.55e-05 ± 4.5e-06 s⁻¹.

On to G13C U54G, for which the kcat in data set [1] was 0.000222 ± 4.5e-06 s⁻¹. In addition, the Michaelis constant (KM) in data set [2] came out at 6.04 ± 0.23 mM. The “self-cleavage kobs at 2500 uM GlcN6P” value in data set [4] amounted to 6.51e-05 ± 1e-05 s⁻¹. Further, in data set [5], the “self-cleavage kobs at 10000 uM GlcN6P” value was 0.000138 ± 1.7e-05 s⁻¹.

Consider G51U A52C, for which the kcat in data set [1] is less than 1e-05 s⁻¹. Further, the “self-cleavage kobs at 40 uM GlcN6P” value in data set [6] is less than 1e-05 s⁻¹. Moreover, the “self-cleavage kobs at 2500 uM GlcN6P” value in data set [4] was less than 1e-05 s⁻¹. In addition, the “self-cleavage kobs at 10000 uM GlcN6P” value in data set [5] is less than 1e-05 s⁻¹.

Regarding U46G U65A, the kcat in data set [1] amounted to 0.00378 ± 0.00067 s⁻¹. Besides, the KM in data set [2] was 2.42 ± 0.65 mM. Besides, the “self-cleavage kobs at 40 uM GlcN6P” value in data set [6] was determined as 8.18e-05 ± 1.7e-05 s⁻¹. Moreover, the “self-cleavage kobs at 160 uM GlcN6P” value in data set [7] was determined as 0.000198 ± 4.8e-05 s⁻¹. Moreover, in data set [3], the “self-cleavage kobs at 640 uM GlcN6P” value was 0.000703 ± 0.00015 s⁻¹. Besides, the “self-cleavage kobs at 2500 uM GlcN6P” value in data set [4] amounted to 0.00212 ± 0.00033 s⁻¹. Besides, the “self-cleavage kobs at 10000 uM GlcN6P” value in data set [5] was found to be 0.00296 ± 0.00047 s⁻¹.

With C11U C67A, the kcat in data set [1] came to 0.000277 ± 2.6e-05 s⁻¹. For the same variant, in data set [2], the KM is 0.801 ± 0.18 mM. For the same variant, the “self-cleavage kobs at 160 uM GlcN6P” value in data set [7] was 4.36e-05 ± 1.8e-05 s⁻¹. For the same variant, the “self-cleavage kobs at 640 uM GlcN6P” value in data set [3] worked out at 0.000121 ± 1.3e-05 s⁻¹. Further, in data set [4], the “self-cleavage kobs at 2500 uM GlcN6P” value turned out to be 0.000256 ± 4e-05 s⁻¹. The “self-cleavage kobs at 10000 uM GlcN6P” value in data set [5] is 0.000242 ± 3e-05 s⁻¹.

On to A53C U57A U69A, for which the kcat in data set [1] was determined as 1.88e-05 ± 5.8e-06 s⁻¹.

For the variant A14G U54C, in data set [1], the catalytic constant (kcat) was 0.151 ± 0.0085 s⁻¹. The KM in data set [2] worked out at 4.42 ± 0.27 mM. Also, the “self-cleavage kobs at 40 uM GlcN6P” value in data set [6] amounted to 0.00134 ± 0.00025 s⁻¹. For the same variant, the “self-cleavage kobs at 160 uM GlcN6P” value in data set [7] came out at 0.00536 ± 0.00096 s⁻¹. Moreover, the “self-cleavage kobs at 640 uM GlcN6P” value in data set [3] is 0.0185 ± 0.0064 s⁻¹. Moreover, in data set [5], the “self-cleavage kobs at 10000 uM GlcN6P” value was determined as 0.105 ± 0.042 s⁻¹.

On to G32U C58A, for which the catalytic constant (kcat) in data set [1] amounted to 0.00151 ± 0.00022 s⁻¹. Further, the Michaelis-Menten constant (KM) in data set [2] was 5.03 ± 1 mM. The “self-cleavage kobs at 160 uM GlcN6P” value in data set [7] was 6.77e-05 ± 1.3e-05 s⁻¹. Besides, the “self-cleavage kobs at 640 uM GlcN6P” value in data set [3] is 0.000164 ± 1.4e-05 s⁻¹. For the same variant, the “self-cleavage kobs at 2500 uM GlcN6P” value in data set [4] was 0.000495 ± 4.5e-05 s⁻¹. For the same variant, the “self-cleavage kobs at 10000 uM GlcN6P” value in data set [5] was 0.00102 ± 8.8e-05 s⁻¹.

Turning to G7A U45A, the kcat in data set [1] was 3.18e-05 ± 3.1e-06 s⁻¹. Further, the “self-cleavage kobs at 10000 uM GlcN6P” value in data set [5] was 2.85e-05 ± 1.2e-05 s⁻¹.

In the case of A12C U49G, the kcat in data set [1] came out at 0.000332 ± 1.7e-05 s⁻¹. The Michaelis-Menten constant (KM) in data set [2] is 1.73 ± 0.21 mM. In addition, the “self-cleavage kobs at 640 uM GlcN6P” value in data set [3] was 8.81e-05 ± 2e-05 s⁻¹. Moreover, in data set [4], the “self-cleavage kobs at 2500 uM GlcN6P” value was 0.000216 ± 9.7e-05 s⁻¹. Also, the “self-cleavage kobs at 10000 uM GlcN6P” value in data set [5] stood at 0.000282 ± 4e-05 s⁻¹.
